# Measured values published in patent publication US20220235118A1 (IMMUNOME, published 2022).
# B1: PR193_00018 (antibody, V domains shown)
# VH: EVQLVESGGGLVQPGGSLRLSCSASGFTFSSFWMSWVRQAPGKGLEWVATIREDGSEKYYVDSVKGRFSISRDNAKNSLYLQMNSLRAEDTAVYYCARSKWLRGSFDYWGQGTLVTVSS
# VL: NFMLTQPHSVSESPGKTVTISCTRRSGSIASNYVQWYQQRPGSAPTTVIYEDNQRPSGVPDRFSGSIDSSSNSASLTISGLQTEDEADYYCQSYDSSNPPGASWVFGGGTKLTVL
# notes: also called IMM20184; IMM200184
# B2: PR200_00622 (antibody, V domains shown)
# VH: QVQLVESGGGVVQPGRSLRLSCTASGFTFSTYGMHWVRQAPGKGLEWVAVISYDGSSKHYAESVKGRFTISRDNSNNTLYLQMNRLRAEDTAVYYCARDGQPPGWGNYFDYWGQGTLVTVAS
# VL: SYVLTQPPSVSVAPGKTARITCGGNGIGSKSVYWYQQKPGQAPEVVVYDDSDRPSGIPERFSGSNSGNTATLTISRVEAGDEADYYCQVWDSSSDPWVFGGGTKLTVL
# notes: also called IMM20253; PR200_00253
# B3: PR194_00232 (antibody, V domains shown)
# VH: EVQLVESGGGLVQPGGSLRLSCSASGFTVSSNYMSWVRQAPRKGLEWVSVIYAGGSTFYADSVKGRFTISRDNSKNTLLLQMNSLRAEDTAVYYCARDRGGYLDYWGQGTLVTVSS
# VL: DIQMTQSPSSLSASVGDRVTITCRASQGISNYLAWYQQKPGKVPKLLIYAASTLQSGVPSRFSGSGSGTDFTLTISSLQPEDVATYYCQKYNSAPGLTFGGGTKVEIK
# notes: also called IMM20190; PR194_00190
# Tests used:
# [1] = molecular target: T1, SARS-CoV-2 Spike S1 domain D614G (SARS-CoV-2, UniProt P0DTC2 16-685); assay: HTRF, soluble S1 construct
# T1 construct: domain: S1
# [2] = molecular target: T2, SARS-CoV-2 Spike S1 domain A222S, D614G (SARS-CoV-2, UniProt P0DTC2 16-685); assay: HTRF, soluble S1 construct
# T2 construct: domain: S1; also called Spanish (A222S, D614G)
# [3] = molecular target: T3, SARS-CoV-2 Spike S1 domain K417N, E484K, N501Y, D614G (SARS-CoV-2, UniProt P0DTC2 16-685); assay: HTRF, soluble S1 construct
# T3 construct: domain: S1; also called S. African (K417N, E484K, N501Y, D614G); B.1.351
# [4] = molecular target: T4, SARS-CoV-2 Spike S1 domain ΔHV69/70, ΔY144, N501Y, A570D, D614G, P681H (SARS-CoV-2, UniProt P0DTC2 16-685); assay: HTRF, soluble S1 construct
# T4 construct: domain: S1; also called U.K. (B.1.1.7); DHV69/70, DY144, N501Y, A570D, D614G, P681H
# [5] = molecular target: T5, SARS-CoV-2 Spike S1 domain ΔHV69/70, Y453F, D614G (SARS-CoV-2, UniProt P0DTC2 16-685); assay: HTRF, soluble S1 construct
# T5 construct: domain: S1; also called Denmark (ΔHV69/70, Y453F, D614G); DHV69/70, Y453F, D614G
# [6] = molecular target: T6, SARS-CoV-2 Spike RBD K417N, E484K, N501Y (SARS-CoV-2, UniProt P0DTC2 319-541); assay: HTRF, soluble RBD construct
# T6 construct: domain: RBD; also called S. African partial (K417N, E484K, N501Y)
# [7] = molecular target: T7, SARS-CoV-2 Spike RBD K417T, E484K, N501Y (SARS-CoV-2, UniProt P0DTC2 319-541); assay: HTRF, soluble RBD construct
# T7 construct: domain: RBD; also called Brazilian (K417T, E484K, N501Y)
# [8] = molecular target: T7, SARS-CoV-2 Spike RBD K417T, E484K, N501Y; assay: HTRF, EC50 of binding, soluble RBD construct
# [9] = molecular target: T8, SARS-CoV-2 Spike-RBD Omicron variant (SARS-CoV-2, UniProt P0DTC2 319-541); assay: HTRF binding assay on soluble Spike-RBD B.1.1.529; % binding relative to Ref
# T8 construct: domain: RBD; also called soluble RBD domain of the Spike protein containing mutations found in the Omicron variant
Binder,fold over background [1],fold over background [2],fold over background [3],fold over background [4],fold over background [5],EC50 [6],EC50 [7],binding result [8],binding result [9]
B1,4.93 fold over background,5.43 fold over background,4.64 fold over background,4.15 fold over background,5.61 fold over background,0.0145 nM,0.0183 nM,,
B2,6.1 fold over background,6.64 fold over background,6.28 fold over background,5.92 fold over background,7 fold over background,0.0197 nM,0.0236 nM,,
B3,4.84 fold over background,8.47 fold over background,1.12 fold over background,3.91 fold over background,8.18 fold over background,,,no binding,no binding
